Reference: patent US20250172568A1 (TRUSTEES OF DARTMOUTH COLLEGE, published 2025)

B1: afucosylated BB7.2 IgG1 (HLA-A2-specific chimeric mAb) (antibody)
heavy: not shown
light: DVLMTQTPLSLPVSLGDQVSISCRSSQSIVHSNGNTYLEWYLQKPGQSPKLLIYKVSNRFSGVPDRFSGSGSGTDFTLKISRVEAEDLGVYYCFQGSHVPRTFGGGTKLEIKRADAAPTVSIFPPSSEQLTSGGASVVCFLNNFYPKDINVKWKIDGSERQNGVLNSWTDQDSKDSTYSMSSTLTLTKDEYERHNSYTCEATHKTSTSPIVKSFNRNEC
notes: also called afucosylated IgG1; afucosylated HLA-A2 mAb
B2: BB7.2 IgG1 (HLA-A2-specific chimeric mAb, unmodified / fucosylated) (antibody)
heavy: not shown
light: B1 light
notes: also called HLA-A2 IgG1 mAb; unmodified HLA-A2 mAb
B3: afucosylated BB7.2 IgG3 (HLA-A2-specific chimeric mAb) (antibody)
heavy: QVQLQQSGPELVKPGASVKMSCKASGYTFTSYHIQWVKQRPGQGLEWIGWIYPGDGSTQYNEKFKGKTTLTADKSSSTAYMLLSSLTSEDSAIYFCAREGTYYAMDYWGQGTSVTVSSAKTTPPSVYPLAPGCGDTTGSSVTLGCLVKGYFPESVTVTWNSGSLSSSVHTFPALLQSGLYTMSSSVTVPSSTWPSQTVTCSVAHPASSTTVDKKLELKTPLGDTTHTCPRCPEPKSCDTPPPCPRCPEPKSCDTPPPCPRCPEPKSCDTPPPCPRCPAPELLGGPSVFLFPPKPKDTLMISRTPEVTCVVVDVSHEDPEVQFKWYVDGVEVHNAKTKPREEQYNSTFRVVSVLTVLHQDWLNGKEYKCKVSNKALPAPIEKTISKTKGQPREPQVYTLPPSREEMTKNQVSLTCLVKGFYPSDIAVEWESSGQPENNYNTTPPMLDSDGSFFLYSKLTVDKSRWQQGNIFSCSVMHEALHNRFTQKSLSLSPGK
light: B1 light
notes: also called afucosylated IgG3; afucosylated HLA-A2 mAb
B4: BB7.2 IgG3 (HLA-A2-specific chimeric mAb, unmodified / fucosylated) (antibody)
heavy: B3 heavy
light: B1 light
notes: also called HLA-A2 IgG3 mAb; unmodified HLA-A2 mAb

Experiments:
[1] = target: T1, FcγRIIIa V158 (recombinantly expressed, monomeric) (human, UniProt P08637 17-208); test: BLI (Octet), mAb on HLA-A2 antigen tips, monomeric FcγRIIIa V158; dissociation rate printed as 'KD'; the value is the MEAN over afucosylated IgG1 and IgG3
T1 construct: also called biotinylated FcγRIIIa V158 tetramers
T1 sequence (P08637 17-208 F176V limits assumed): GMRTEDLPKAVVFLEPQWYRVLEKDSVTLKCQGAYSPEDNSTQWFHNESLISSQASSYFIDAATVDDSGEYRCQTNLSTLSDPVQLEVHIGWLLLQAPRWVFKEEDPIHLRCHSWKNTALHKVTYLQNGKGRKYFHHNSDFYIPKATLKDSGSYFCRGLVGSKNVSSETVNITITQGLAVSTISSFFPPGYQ
Text: (§1) Antibody-Receptor dissociation kinetics measurement by Biolayer Interferometry (BLI). […] Streptavidin tips were first coated with biotinylated HLA-A2 antigens. After establishing a signal baseline, the tips were loaded with HLA-A2-specific antibodies, dipped into the buffer for baseline, and then finally dipped into a solution of recombinantly expressed FcγRIIIa V158 monomers. Following receptor association, tips were dipped into a buffer, which allowed receptor dissociation. The dissociation rate of FcγR was defined relatively to a reference tip which was not dipped into the receptor.
(§2) High Precision Streptavidin 2.0 (SAX2) biosensor tips (Sartorius) were used to determine the kinetics of HLA-A2-specific IgG binding to human FcγRIIIa and FcγRI by biolayer interferometry (BLI) on an Octet (Forte Bio) instrument. Streptavidin (SA) biosensor tips were first loaded with HLA-A2 antigen, followed by HLA-A2 antibody, and finally dipped into FcγR to study the antibody-receptor kinetics. Biosensors were equilibrated with 0.05% Tween-PBS for 60 s, loaded with 0.25 μg/mL biotinylated HLA-A2 antigen (in 0.05% Tween-PBS) until they reached the threshold of 1 nm, and then dipped into 0.05% Tween-PBS to reach baseline for 60 s. […]

[2] = target: T2, FcγRI (human, UniProt P12314 16-288); test: BLI (Octet), mAb on HLA-A2 antigen tips, 292 nM FcγRI in solution
T2 construct: also called human FcγRI
T2 sequence (P12314 16-288 limits assumed): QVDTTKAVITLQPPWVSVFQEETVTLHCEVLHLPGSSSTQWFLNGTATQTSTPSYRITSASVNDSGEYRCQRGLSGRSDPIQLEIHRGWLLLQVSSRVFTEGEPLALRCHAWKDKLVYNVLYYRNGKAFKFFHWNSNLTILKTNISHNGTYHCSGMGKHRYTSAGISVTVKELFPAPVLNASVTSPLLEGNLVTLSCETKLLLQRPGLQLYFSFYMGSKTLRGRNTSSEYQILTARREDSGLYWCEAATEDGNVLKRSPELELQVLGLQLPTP
Experimental: High Precision Streptavidin 2.0 (SAX2) biosensor tips (Sartorius) were used to determine the kinetics of HLA-A2-specific IgG binding to human FcγRIIIa and FcγRI by biolayer interferometry (BLI) on an Octet (Forte Bio) instrument. Streptavidin (SA) biosensor tips were first loaded with HLA-A2 antigen, followed by HLA-A2 antibody, and finally dipped into FcγR to study the antibody-receptor kinetics. Biosensors were equilibrated with 0.05% Tween-PBS for 60 s, loaded with 0.25 μg/mL biotinylated HLA-A2 antigen (in 0.05% Tween-PBS) until they reached the threshold of 1 nm, and then dipped into 0.05% Tween-PBS to reach baseline for 60 s. […] To improve signal to noise, serum IgG was purified using Melon gel (Thermo) according to the manufacturer's instructions. Polyclonal serum IgG was loaded for 2,400 s. For FcγR dissociation rate (kd) determination, two SAX2 biosensor tips were used, one for the measurement and one as a reference to subtract background signal changes due to dissociation of other components, such as dissociation of HLA-A2-specific IgG from biotinylated HLA. Reference biosensors loaded with IgGs were dipped into buffer (0.05% Tween-PBS) instead of receptors. Finally, the sensors were dipped into 0.05% Tween-PBS for 180 s and 300 s for the dissociation of FcγRIIIa and FcγRI, respectively.

[3] = target: T1, FcγRIIIa V158 (recombinantly expressed, …); test: BLI (Octet), mAb on HLA-A2 antigen tips, monomeric FcγRIIIa V158; dissociation rate printed as 'KD'; the value is the MEAN over unmodified IgG1 and IgG3
Text: as §1, §2

Row | Binder | koff [1] | binding result [2] | koff [3]
1 | B1 | 0.021 s⁻¹ | binds | –
2 | B2 | – | binds | 0.46 s⁻¹
3 | B3 | 0.021 s⁻¹ | binds | –
4 | B4 | – | binds | 0.46 s⁻¹
